Experimental data taken from patent US20180021429A1, “ANTICANCER AGENTS OR ANTIMETASTATIC AGENTS USING FSTL1 AND COMBINATION DRUG THEREOF” (PHARMA FOODS INTERNATIONAL CO., LTD., priority 2015, published 2018).
“Also recorded” adds a separate entry of the source.

Columns and labels:
mouse bone marrow cells = assay: Inhibition of induction of mesenchymal stem cells (MSC) by FSTL1 in mouse bone marrow cells (Examples 4, 6, 8, 12); type: cell-based; conditions: 8 days
Procedure: It is known that when bone marrow cells are stimulated with FSTL1, mesenchymal stem cells (MSCs) having pluripotency or self-proliferative capacity grow (Cancer Research 73: 6185, 2013). Thus, 2×10^7 cells/well of bone marrow cells collected from the thigh bone of a C57BL/6 mouse were suspended in 3 mL/well of RPMI1640 (GIBCO/Thermo Fisher Scientific Inc., Cat. No. C11875500BT) medium containing 2% fetal bovine serum, supplemented with 50 ng/mL (final concentration) of FSTL1 (R&D Systems, Inc. Cat#1694-FN-050) and 10 μg/mL of the anti-FSTL1 antibody (#5-2, […], #5-8, #5-10, #5-43, #6-55, or #7-34) or its isotype mouse IgG (anti-DNP antibody) as a control antibody “Control”, and cultured under stimulation (6-well plate). 11 days thereafter, the number of cells was counted while the cells were stained with a PE-labeled anti-ALCAM antibody (eBioscience, Cat. No. 12-1661-82) and a PE-labeled anti-PDGFRA antibody (eBioscience, Cat#12-1401-81) in order to examine the expression of MSC markers, and the contents of ALCAM-positive cells and PDGFR-positive cells were analyzed by flow cytometry using FACScan (Becton, Dickinson and Company, Code. BECTON-DICKINSON-FACSCAN) to calculate the number of each positive cell per culture.
(§1) Mouse bone marrow cells prepared in the same way as in Example 4 were supplemented with 50 ng/mL (final concentration) of FSTL1 and 10 μg/mL of the anti-FSTL1 antibody (#5-2, #5-3, #5-8, #5-10, #5-43, #6-55, or #7-34) or a control antibody anti-DNP antibody and cultured under stimulation. 11 days thereafter, the number of cells was counted while the cells were stained with a PE-Cy5-labeled anti-CD45 antibody (BD Pharmingen/Becton, Dickinson and Company, Cat. No. 555484), and the content of CD45− negative cells reported to generally contain MSCs at a high rate was analyzed by flow cytometry using FACScan to calculate the percentage and number of MSCs per culture (FIG. 99A).
as §1, with “20” for “50”, “#8-1, #8-4, #8-7, and #8-8)” for “or #7-34)”, “8” for “11”, “antibody,” for “antibody (BD Pharmingen/Becton, Dickinson and Company, Cat. No. 555484),”, “cells” for “cells reported to generally contain MSCs at a high rate”, “100A).” for “99A).”
(§2) Mouse bone marrow cells prepared in the same way as in Example 4 were supplemented with 20 ng/mL (final concentration) of FSTL1 and 10 μg/mL of the anti-FSTL1 antibody (#5-2, #5-8, #6-55, 47-34, #8-1, #8-4, #8-7, or #8-8) or a control antibody anti-DNP antibody and cultured under stimulation. 8 days thereafter, the number of cells was counted while the cells were stained with a PE-Cy5-labeled anti-CD45 antibody, and the content of CD45− negative cells was analyzed by flow cytometry using FACScan to calculate the percentage and number of MSCs per culture (FIG. 101).

FSTL1 = biological target: T1, FSTL1 (Homo sapiens, UniProt Q12841); assay: Inhibition of MSC induction by FSTL1 in mouse bone marrow cells, CD45-negative cells (Examples 6, 8, 12); type: cell-based; set-up: purchased R&D Systems, Inc. 1694-FN-050; conditions: FSTL1 20 ng/mL, antibody 10 μg/mL, 8 days
T1 sequence (Q12841 21-308): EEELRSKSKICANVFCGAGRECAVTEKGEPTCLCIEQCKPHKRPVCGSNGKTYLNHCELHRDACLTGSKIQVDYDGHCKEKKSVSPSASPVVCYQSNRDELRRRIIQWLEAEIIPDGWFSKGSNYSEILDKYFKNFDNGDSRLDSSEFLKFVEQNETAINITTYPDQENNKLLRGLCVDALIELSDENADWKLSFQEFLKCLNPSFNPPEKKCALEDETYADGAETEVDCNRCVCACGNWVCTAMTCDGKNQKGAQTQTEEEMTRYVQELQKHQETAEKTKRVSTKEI
Procedure: as §1, with “45-43,” for “#5-43,”, “67A).” for “99A).”
as §2, with “(#5-2, #5-3,” for “(#5-2,”, “#5-8, #5-10, #5-43,” for “#5-8,”, “#6-55,” for “#6-55, 47-34,”, “#8-7, and” for “#8-7, or”, “(FIG. 68A).” for “(FIG. 101).”
as §2, with “#7-34,” for “47-34,”, “69).” for “101).”

[1] = Example 8: 20 ng/mL FSTL1, 10 μg/mL antibody, FIG. 100A
[2] = Example 12: 20 ng/mL FSTL1, 10 μg/mL antibody, FIG. 101

| Molecule | inhibitory activity against the expansion of CD45-negative cells by FSTL1 (mouse bone marrow cells; [1]) | inhibitory activity against the expansion of CD45-negative cells by FSTL1 (FSTL1; Example 8) | inhibitory activity against the expansion of CD45-negative cells by FSTL1 (mouse bone marrow cells; [2]) | inhibitory activity against the expansion of CD45-negative cells by FSTL1 (FSTL1; Example 12) |
| --- | --- | --- | --- | --- |
| #8-4: chicken-mouse chimeric anti-FSTL1 antibody clone; variable regions SEQ ID NO: 795 (light), 797 (heavy) (antibody, V domains shown, mouse constant regions) VH: AVTLDESGGGLQTPGGGLSLVCKGSGFTLSSFNMFWVRQAPGKGLEWVAGVGKDGGTAYGAAVDGRATISRDSGQSTVRLQLNNLRAEDTGTYFCAKAAGGCSYSWCGAYVGDLDAWGHGTEVIVSS VL: ASSQPSSVSANPGETVKITCSGGSGYYYGWYQQKSPGSAPVTVIYNNDNKPSDIPSRFSGSKSGSTGTLTITGVQVEDEAVYFCGGYDNSGTGIFGAGTTLTVL | exhibited inhibitory activity | exhibited inhibitory activity | – | – |
| #8-1: chicken-mouse chimeric anti-FSTL1 antibody clone; variable regions SEQ ID NO: 791 (light), 793 (heavy) (antibody, V domains shown, mouse constant regions) VH: AVTLDESGGGLQTPGGALSLVCKGSGFTFSSFNMFWVRQAPGKGLEWVAGIGKDGVPKYGAAVDGRATISKDNGQSTMRLQLNNLRAEDTGTYFCAKAAGGCSYDWCGIYAGDIDTWGHGTEVIVSS VL: ASTQPSSVSANPGEAVKITCSGGSGSYYGWYQQKSPGSAPVTVIYNNNQRPSDIPSRFSGSKSGSTATLTITGVQAEDEAVYFCGGYDSSSGHGGIFGAGTTLTVL | exhibited inhibitory activity | Inhibitory activity was confirmed; also recorded: exhibited inhibitory activity | – | – |
| #5-2: chicken-mouse chimeric anti-FSTL1 antibody clone; variable regions SEQ ID NO: 763 (light), 765 (heavy) (antibody, V domains shown, mouse constant regions) VH: AVTLDESGGGLQTPGGGLSLVCKGSGFTFSSFNMFWVRQAPGKGLEWVAGVGKDGGTGYGAAVDGRATISKDNGQSTLRLQLNNLRAEDTGTYYCAKAAGGCSYGWCGSYVGDIDAWGHGTEVIVSS VL: ASTQPSSVSANPGEAVKITCSGGSGSYYGWYQQKSPGSAPVTVIYNNNQRPSDIPSRFSGSKSGSTATLTITGVQAEDEAVYFCGGYDSSTGHGGIFGAGTTLTVL | – | – | higher inhibitory activity was confirmed in the order of #7-34, #5-2, #6-55, and #8-7 | stronger inhibitory activity was confirmed in the order of clone #7-34, #5-2, 46-55, and #8-7; also recorded: higher inhibitory activity was confirmed in the order of #7-34, #5-2, #6-55, and #8-7; also recorded: stronger inhibitory activity was confirmed in the order of clone #7-34, #5-2, 96-55, and #8-7 |
| #8-7: chicken-mouse chimeric anti-FSTL1 antibody clone; variable regions SEQ ID NO: 799 (light), 801 (heavy) (antibody, V domains shown, mouse constant regions) VH: AVTLDESGGGLQTPGGGLSLVCKGSGFTFSSFNMFWVRQAPGKGLEWVAGIGKDGVPKYGAAVDGRATISKDNGQSTLRLQLNNLRAEDTGTYFCAKAAGGCSYDWCGIYAGDIDTWGHGTEVIVSS VL: ASTQPSSVSANPGEAVKITCSGGSGSYYGWYQQKSPGSAPVTVIYNNNQRPSDIPSRFSGSKSGSTATLTITGVQAEDEAVYFCGGYDSSTGHGGIFGAGTTLTVL | – | – | higher inhibitory activity was confirmed in the order of #7-34, #5-2, #6-55, and #8-7 | stronger inhibitory activity was confirmed in the order of clone #7-34, #5-2, 46-55, and #8-7; also recorded: higher inhibitory activity was confirmed in the order of #7-34, #5-2, #6-55, and #8-7; also recorded: stronger inhibitory activity was confirmed in the order of clone #7-34, #5-2, 96-55, and #8-7 |
